The test system of experiment [1] is A20 lymphoma cells (I-A^d positive), mouse or human plasma. As to the kind of experiment: In vitro coagulation assay on A20 cells with capture bispecific antibody B21-2/10H10. In kind it is cell-based.
Experiment [2] concerns C1300 Muγ mouse neuroblastoma vessels. As to the kind of experiment: In vivo tumor thrombosis by tTF, C1300 Muγ. Further details: species or system BALB/c nu/nu mice. The source says: (§1) Tumor test systems were of four types: i) 3LL mouse lung carcinoma growing subcutaneously in C57BL/6 mice; ii) C1300 mouse neuroblastoma growing subcutaneously in BALB/c nu/nu mice; iii) HT29 human colorectal carcinoma growing subcutaneously in BALB/c nu/nu mice; and iv) C1300 Muγ mouse neuroblastoma growing subcutaneously in BALB/c nu/nu mice. The C1300 Muγ tumor is an interferon-γ secreting transfectant derived from the C1300 tumor (Watanabe et al., 1989).
(§2) To establish tumors, 10^6 to 1.5×10^7 tumor cells were injected subcutaneously into the right anterior flank of the mice. When tumors had grown to various sizes, mice were randomly assigned to different study groups. […] Fab′, or bispecific antibody. Other mice received equivalent quantities IgG, Fab′ or bispecific antibody alone. The injections were performed slowly into one of the tail veins over approximately 45 seconds, usually followed by 200 μl of saline.
(§3) Twenty-four hours after being injected with tTF or immunoglobulin-tTF conjugates, the mice were anesthetized with metophane and were exsanguinated by perfusion with heparinized saline. Tumors and normal tissues were excised and immediately fixed in 3% (v/v) formalin. Paraffin sections were cut and stained with hematoxylin and eosin. Blood vessels having open lumens containing erythrocytes and blood vessels containing thrombi were counted. […]

Experiment [3] deals with C1300 mouse neuroblastoma vessels. As to the kind of experiment: In vivo tumor thrombosis by tTF, C1300. Details: species or system BALB/c nu/nu mice.
From the text: as §1, §2, §3

In experiment [4] the test system is 3LL mouse lung carcinoma vessels. As to the kind of experiment: In vivo tumor thrombosis by tTF, 3LL. Further details: species or system C57BL/6 mice. The settings on record: large (>800 mm^3) tumors.
From the text: as §1, §2, §3

The next experiment relates to C1300 Muγ tumors. As to the kind of experiment: Anti-tumor effects of tTF and immunoglobulin-tTF in C1300 Muγ tumors. It is filed as in vivo, nu/nu mice. The following applies: 300 mm^3 tumors. How it is done:
(§4) The tumor test systems were: i) L540 human Hodgkin's disease tumors growing in SCID mice; ii) C1300 Muγ (interferon-secreting) neuroblastoma growing in nu/nu mice; iii) H460 human non-small cell lung carcinoma growing in nu/nu mice. To establish solid tumors, 1.5×10^7 tumor cells were injected subcutaneously into the right anterior flank of SCID or BALB/c nu/nu mice (Charles River Labs., Wilmingham, Mass.). When the tumors had grown to various diameters, mice were assigned to different experimental groups, each containing 4 to 9 mice.
(§5) Other mice received equivalent quantities of bispecific antibody alone. The injections were performed over ˜45 seconds into one of the tail veins, followed by 200 μl of saline. The infusions were repeated six days later. Perpendicular tumor diameters were measured at regular intervals and tumor volumes were calculated.
Mice bearing small (300 mm^3) C1300 Muγ tumors were injected intravenously with 16-20 μg tTF219. The treatment was repeated one week later. […] One week after the second treatment with tTF219, tumors were 60% of the size of tumors in mice receiving diluent alone. The greater effectiveness of the second injection probably derives from the greater thrombotic action of tTF219 on vessels in large tumors, observed above.
Mice bearing small (300 mm^3) subcutaneous C1300 Muγtumors were treated with tTF219 or with a complex of tTF219 and a bispecific antibody, OX7 Fab′/10H10 Fab′, not directed to a component of the tumor environment. The treatment was repeated 6 days later.

For experiment [5], the system named is H460 human lung carcinomas. As to the kind of experiment: Anti-tumor effects of tTF219 in H460 tumors. It is filed as in vivo, nu/nu mice. The protocol:
as §4, §5
In addition to the effects in mice bearing C1300 Muγ tumors, similar anti-tumor effects were observed using other tumor types. […] The second treatment with tTF219 was given when the tumors were larger (900 mm^3) and caused the tumors to regress to 550 mm^3 before regrowing.

Experiment [6] has as its system HT29 human colorectal carcinomas. As to the kind of experiment: Anti-tumor effects of tTF219 in HT29 tumors. In kind it is in vivo, Nu/nu mice. The settings on record: large (1200 mm^3) tumors, i.v. How it is done:
Anti-tumor effects were also observed in mice bearing HT29 human colorectal carcinomas. Nu/nu mice bearing large (1200 mm^3) tumors on their flanks were injected intravenously with tTF219 or PBS (control), and growth of the tumors was monitored each day for 10 days. The tumors in the tTF219 treated mice discontinued growth for about 7 days after treatment, whereas the tumors in mice treated with PBS continued to grow unchecked.

Experiment [7] has as its system HT29 (human colorectal carcinoma) xenograft. As to the kind of experiment: Tumor necrosis by tTF constructs with Factor VIIa, HT29 xenograft. It is filed as in vivo, BALB/c nu/nu mice. The following applies: single agents; 24 hours.

B1: tTF219: residues 1-219 of TF plus an additional glycine at the N-terminus (protein)
chain: GSGTTNTVAAYNLTWKSTNFKTILEWEPKPVNQVYTVQISTKSGDWKSKCFYTTDTECDLTDEIVKDVKQTYLARVFSYPAGNVESTGSAGEPLYENSPEFTPYLETNLGQPTIQSFEQVGTKVNVTVEDERTLVRRNNTFLSLRDVFGKDLIYTLYYWKSSSSGKKTAKTNTNEFLIDVDKGENYCFSVQAVIPSRTVNRKSTDSPVECMGQEKGEFRE
With B1, the plasma coagulation time in experiment [1] (10^−10 M tTF219, 13.5 nM Factor VIIa) was 20 s; in experiment [1] (10^−10 M tTF219, absence of Factor VIIa) it was 60 s. The “increase in coagulation-inducing potency” value in experiment [1] (presence of 0.1 nM Factor VIIa) is 2-5 fold. For the same molecule, in experiment [1] (presence of 13.5 nM Factor VIIa), the “enhancement in coagulation-inducing potency” value was around 100 fold. Besides, the tumor vessel thrombosis result in experiment [2] (24 hours after injection) is “practically all vessels in all regions of the tumor were thrombosed”; in experiment [2] (small (<500 mm^3) tumors) it was “largely unaffected”; in experiment [3] (large tumors (>1000 mm^3), 24 hours after injection), “virtually all vessels were thrombosed”; in experiment [3] (small (<500 mm^3) tumors) it was “largely unaffected”. The “tumor vessels thrombosed, average” value in experiment [4] stood at 62%. Also, in the experiment on C1300 Muγ tumors (16-20 μg i.v., repeated one week later, one week after second treatment), the “tumor size, of tumors in mice receiving diluent alone” value worked out at 60%. For the same molecule, in the experiment on C1300 Muγ tumors (treatment repeated 6 days later, fourteen days after the first injection), the “tumor size, of controls receiving diluent alone” value came out at 75%. In experiment [5] (first treatment, tumors 250 mm^3), the “effect on growth rate” value is reported as “little effect on growth rate”. Also, in experiment [5] (second treatment, given at 900 mm^3), the “tumor volume to which tumors regressed” value is on record as 550 mm^3. Moreover, the “time of discontinued tumor growth after treatment” value in experiment [6] is reported as “about 7 days”. For the same molecule, the tumor necrosis result in experiment [7] is “some necrosis”.

(Values after US20030124132A1 (University of Texas, published 2003).)
